Assay results from patent publication US20040167074A1, “Therapeutic applications of mFLINT polypeptides” (priority 1998, published 2004).
“And” between values parts separate entries of the source, which are not always exact repeats. Equal values may be shown once.

Columns and labels:
[1] = test system: bone marrow cells; assay: Viable cell count of bone marrow cells from 5-FU treated mice after cytokine expansion; format: cell-based, mouse; conditions: FIG. 10; 3 days with SCF and IL-6; mFLINT 1 ug/ml, anti-FasL 1 ug/ml, FasL 0.15 ug/ml; control 3,300
Text: Following a 3 day in vitro expansion period with cytokines, viable cells are counted and used to set up a CFU assay. If mFLINT or anti-FasL antibody protects progenitor cells from apoptosis, one would expect a greater number of colonies in these groups for the CFU assay. […] The values were: control cells: 3,300; FasL-treated cells: 3,000; anti-FasL-treated cells: 4,200; mFLINT-treated cells: 4,900.

[2] = molecular target: T1, hFasLigand (Flag-tagged) (Homo sapiens, UniProt P48023); assay: ELISA: FasLigand binding to adsorbed FLINT and Fas; conditions: 100 ng receptor adsorbed
T1 sequence (P48023 103-281 limits assumed): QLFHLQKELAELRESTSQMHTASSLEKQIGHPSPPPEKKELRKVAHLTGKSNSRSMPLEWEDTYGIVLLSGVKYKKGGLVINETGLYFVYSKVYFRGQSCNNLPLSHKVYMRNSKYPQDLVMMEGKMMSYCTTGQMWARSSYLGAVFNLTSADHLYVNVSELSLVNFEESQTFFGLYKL
Procedure: FLINT and Fas (100 ng of each) were adsorbed on to an ELISA plate. hFasLigand (Flag-tagged) was added at different concentrations to a maximum concentration of 300 ng down to 0.1 ng on TBST plus a 0.1% solution containing 1 microgram/ml of M2 Abs. After washing of the plate, anti-mouse-Abs-HRP (1:3000 dilution, Bio-Rad) was added to the wells. After washings, visualization enzymatic reaction using ABTS as a substrate was performed.

[3] = test system: Jurkat cells; assay: Recombinant FasL induced Jurkat cell apoptosis (Annexin V/PI, FACS); format: cell-based; conditions: Jurkat + FasL 200 ng/ml + 1 ug test agent
Procedure: One milliliter of 1×10^6 cell/ml was added into each well of 24 well tissue culture plate and treated with following reagents: soluble Fas L (200 ng), Fas L plus 1 ug mFLINT, Fas L plus 1 ug OPG2-Fc, Trail (200 ng), Trail plus 1 ug mFLINT. Cells were incubated overnight at 37° C. and then stained with Annexin V and PI.

[4] = test system: Jurkat cells; assay: anti-CD3 induced Jurkat apoptosis (Annexin V/PI, FACS); format: cell-based; parameters: Cell apoptosis (Annexin V, FACS): unit not given here; conditions: for Cell apoptosis (positive staining with Annexin V): Example 12; for Cell apoptosis (Annexin V, FACS): Example 14
Procedure: Non-tissue treated 24 well plates (Decton Dickinson, Mansfield, Mass.) were coated with 0.5 ml of 1 ug/ml anti-CD3 (Farmingen) in PBS for 90 min at 37° C. The plate was washed once with PBS.
Cells were incubated overnight at 37° C. incubator and cells were then stained by Annexin V and PI staining. Apotosis was analyzed by flow cytometer (FACS). Cell apoptosis was indicated by positive staining with Annexin V.

B1: mFLINT: mature FLINT without leader peptide (FIG. 3), soluble TNFR superfamily member, made according to Examples 8 and 9 (protein)
chain: VAETPTYPWRDAETGERLVCAQCPPGTFVQRPCRRDSPTTCGPCPPRHYTQFWNYLERCRYCNVLCGEREEEARACHATHNRACRCRTGFFAHAGFCLEHASCPPGAGVIAPGTPSQNTQCQPCPPGTFSASSSSSEQCQPHRNCTALGLALNVPGSSSHDTLCTSCTGFPLSTRVPGAEECERAVIDFVAFQDISIKRLQRLLQALEAPEGWGPTPRAGRAALQLKLRRRLTELLGAQDGALLVRLLQALRVARMPGLERSVRERFLPVH
modifications: glycosylated
With B1 the “bone marrow cell count” value [1] was 4,900 ×1000, the “OD, 405 nM” value ([2]; FasL 0.1 ng) was 0 and the “OD, 405 nM” value ([2]; FasL 0.5 ng) was 0. For the same molecule, the “OD, 405 nM” value ([2]; FasL 1.0 ng) was “.02”, the “OD, 405 nM” value ([2]; FasL 5.0 ng) was “.04” and the “OD, 405 nM” value ([2]; FasL 10 ng) was “.12”. For the same molecule, the “OD, 405 nM” value ([2]; FasL 50 ng) was “.28”, the “OD, 405 nM” value ([2]; FasL 100 ng) was “.78” and the “Cell apoptosis (Annexin V and PI, FACS)” value [3] was 3.32 and 4.6. The “Cell apoptosis (positive staining with Annexin V)” value ([4]; Jurkat + antiCD3 + 1 ug test agent) was 27.77, the “Cell apoptosis (positive staining with Annexin V)” value ([4]; Jurkat + antiCD3 + 2 ug test agent) was 18.67 and the “Cell apoptosis (Annexin V, FACS)” value ([4]; anti CD3 + 15.625 ng) was 28.80. For the same molecule, the “Cell apoptosis (Annexin V, FACS)” value ([4]; anti CD3 + 31.25 ng) was 28.21, the “Cell apoptosis (Annexin V, FACS)” value ([4]; anti CD3 + 62.5 ng) was 28.99 and the “Cell apoptosis (Annexin V, FACS)” value ([4]; anti CD3 + 125 ng) was 29.4. For the same molecule, the “Cell apoptosis (Annexin V, FACS)” value ([4]; anti CD3 + 250 ng) was 28.93, the “Cell apoptosis (Annexin V, FACS)” value ([4]; anti CD3 + 500 ng) was 27.48 and the “Cell apoptosis (Annexin V, FACS)” value ([4]; anti CD3 + 1000 ng) was 24.29. The “Cell apoptosis (Annexin V, FACS)” value ([4]; anti CD3 + 2000 ng) was 17.02 and the “Cell apoptosis (Annexin V, FACS)” value ([4]; anti CD3 + 3000 ng) was 14.68.
